The assay has as its target T1, MUC16 polypeptide, endogenous, on OVCAR-3 cells (human, UniProt Q8WXI7 1-14507).
T1 construct: whole, on cells; Highly polymorphic repeat protein; also called CA125; O772P
Briefly: flow cytometry on OVCAR-3 cells, 25-400 ng/mL, anti-human Fc secondary antibody. For orientation: In flow cytometry, cells or beads pass a laser one at a time.

Method: Bound antibody was detected using a fluorescent anti-human Fc secondary antibody.
Antibodies were applied at 25, 50, 100, 200, and 400 ng/mL in PBS+1% FBS+2 mM EDTA. After this incubation, cells were washed and then incubated with phycoerythrein-labeled goat anti-human Fc secondary antibody (one hour on ice). Cells were then washed and analyzed by flow cytometry. […] Even the lowest antibody concentration tested (25 ng or approximately 1×10¹¹ antibodies) provides a molar excess of antibodies over binding sites. Therefore, the concentration at which binding is reduced (as detected by flow cytometry) reflect the affinity of the antibody for MUC16.

B1: A117C thio hu anti-MUC16 3A5 humanized variant (antibody, human IgG1, kappa, V domains shown)
VH: EVQLVESGGGLVQPGGSLRLSCAASGYSITNDYAWNWVRQAPGKGLEWVGYISYSGYTTYNPSLKSRFTISRDTSKNTLYLQMNSLRAEDTAVYYCARWTSGLDYWGQGTLVTVSS
VL: DIQMTQSPSSLSASVGDRVTITCKASDLIHNWLAWYQQKPGKAPKLLIYGATSLETGVPSRFSGSGSGTDFTLTISSLQPEDFATYYCQQYWTTPFTFGQGTKVEIKR
notes: Full-length IgG expressed in CHO cells; Kabat 114, Eu 118; also called thio hu anti-MUC16 HC A117C 3A5; A117C thio hu 3A5
Turning to B1, the binding result is on record as “binds”.

(Values after patent US20080311134A1 (published 2008).)
